In patent US20090203706A1, “LYSINE-BASED POLYMERIC LINKERS” (priority 2006, published 2009) one finds t1/2α of hydrolysis and t1/2β of hydrolysis data, which are given here for 1 substance.

This series can be described thus: Rate of hydrolysis of PEG prodrugs in rat plasma (HPLC). Type of series: in vitro ADME. Conditions: 37° C., disappearance of PEG derivative. Here is the method: The rates of hydrolysis were obtained by employing a C8 reversed phase column (Zorbax® SB-C8) using a gradient mobile phase made of (a) 0.1 M triethylammonium acetate buffer and (b) acetonitrile. A flow rate of 1 mL/min was used, and chromatograms were monitored using a UV detector. For hydrolysis in buffer, PEG derivatives were dissolved in 0.1 M pH 7.4 PBS at a concentration of 5 mg/mL, while for hydrolysis in plasma, the derivatives were dissolved in distilled water at a concentration of 20 mg/100 μL and 900 μL of rat plasma was added to this solution. The mixture was vortexed for 2 min and divided into 2 mL glass vials with 100 μL of the aliquot per each vial. The solutions were incubated at 37° C. for various periods of time. A mixture of methanol-acetonitrile (1:1, v/v, 400 μL) was added to a vial at the proper interval and the mixture was vortexed for 1 min, followed by filtration through […] filter membrane (optionally followed by a second filtration through […] filter membrane). An aliquot of 20 μL of the filtrate was injected into the HPLC. On the basis of the peak area, the amounts of native compound and PEG derivative were estimated, and the half-life of each compound in different media was calculated using linear regression analysis from the disappearance of PEG derivative.

For the substance PEG-[Lys (DGA-SCH AF)2]2 [Compound 12a], the t1/2α of hydrolysis turned out to be 5 h and the t1/2β of hydrolysis worked out at 15 h.
